From the nanobody polyreactivity screen of Harvey et al. (2022) come the findings set out here.

This data set in a line: yeast display, Sf9 membrane polyspecificity reagent, FACS + sequencing; frameworks hold sequencing errors. The gist of the method: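 Polyreactivity labels are assigned by the sorting gate from which each nanobody was recovered. The gates were low and high (top ~1%), set on anti-HA fluorescence for expression and streptavidin fluorescence for reagent binding. Before sorting, galactose-induced (36–48 hours) yeast display cells were stained for 1 hour at 4 °C with 10% biotinylated, detergent-solubilized Sf9 membrane reagent.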
Regarding “QDQHVESGGGLLQAGGSLRLTCAAYGSIFTDYAMGWYRQPPGKERELVAAITRIGTRTYYADSVKGRFTISRDNAKNTVYLQMNSLKPEDTAVYYCAASGYSPVRWVWLYYWGQGTQVTVSS”, the “polyreactivity (PSR sort gate)” value is “high polyreactivity”.
To “QDQHVESGGGLVQAGGSLRLICAASGFTFSHYPMGSYRQAPGKERELVAAINWSGGSTDYADSVKGRFTLSRDNAMNTVYLQMNSLKPVDTAVYYCNTVSYAYWGYYYWGQGTQVTLSS” belongs “high polyreactivity”; to “QDQHVESGGGLVQAGGSLRLSCAASGGIFQSYTMGRYRQAPGKEREFVAAITYSGGSTHYADSVKGRFTISRDKAKNTVYLQMNSLKPEDTAVYYCNADRYYGRGYGYWGQGTQVTVSS”, “low polyreactivity”; to “QDQHVESGGGLVQAGGSLRLSCAASGIIFTRNAMGWYRQAPGKERELVAVISWGGRTYYADSVKGRFTISRDNAKNTVYLQMNSLKPEDTAVYYCNARAPYPVGGRKGDYWGQGTQVTVSS”, “high polyreactivity”.
Then “QDQHVESGGGLVQAGGSLRLSCAASGIIFYDNTMGWYRQAPGKERELVASITWRGGSTYYADSVKGRFTISRDNAKNTVYLQMNSLKPEDTAVYYCNADSSDDYDYWGQGTQVTVSS”, with “low polyreactivity”; and “QDQHVESGGGLVQAGGSLRLSCAASGRTFVPYAMGWYRQAPGKERELVATISRSGGRTNYADSVKGRFTISRDNAKNTVYIQMNSLKPEDTAVYYCAATGFLTWRHMYYWGQGTQVTVSS”, with “high polyreactivity”.
Then “QDQHVESGGGLVQAGGSLRLSCAASVITYGRYVMGWDRQAPGKERELVAAITGSGGSTYYADSVKGRFTISRDNAKNTVYLQMNSLKAEDTAVYYCAAAGGYRFDYWGQGTQVTVSS”, with “high polyreactivity”; and “QDQHVESGGGLVQAGGSLRLSCSASGRTFDYYAMGWYRQAPGKERELVAAINSGGNTYYADSVKGRFTISRDNAKNTVYLQMNSLKPEDTAVYYCAAYYRDKLSGYNYWGQGTQVTVSS”, with “high polyreactivity”; and “QDQHVESGGGVVQAGGSRRLSCAASGFTISSYAMGWYRPAPGKERHLVAAITWSGSRTYYADSVKGRFTISRDNAKNTVYLQMNSLKPEDTAVYYCAATYRSYRGVRYYLGQGTQVTVSS”, with “high polyreactivity”.
With “QDQHVESGRGLVQEGGSLRLSSPPSGRTIYEYAIGWYRQAPGKETQLVAGITTSGGSTYYAVSVKGRFTISRDNAKNTVYLQMNSLKPEDTAVYYCAKYRKSRGDNDSWGQGTQVTVSS”, the “polyreactivity (PSR sort gate)” value was “high polyreactivity”.
Consider “QDQIVDSRGVLVQEGGSLGLSCAASGLTIYSYAMGFSRQAPRKERELVATITNGDTTTYAETVKARFTISRDNAKNNVIFQFNILKPEDTAVYYCAQHISPGYDEYDYWGQGTQVTVSS”, for which the “polyreactivity (PSR sort gate)” value is listed as “low polyreactivity”.
For “QDQLEESGGGLVQEGGSLRIICDAYRSTFYANTMGWYRQSTGKERELVATISIDGSTNYADSVKGRFTFSRDYAKNTVYLQMNSLKPEDTAVYYCNADVYSVLYGYWGQGTQVSVSS”, the “polyreactivity (PSR sort gate)” value is listed as “low polyreactivity”.
On to “QDQLEESGVGLLQAGGSLRLSCAASGNTFFVNDMGWYRHAPRKERELLAVISINGDSTFYADSVKGRFTISRDNAKNTVYLQMNSLKPEDTAVYYCAADFRRVFCKYSYYLYFEFDYWGQGTQVTVSS”, for which the “polyreactivity (PSR sort gate)” value was “low polyreactivity”.
Then “QDQLGESGGGLVQAGGSLRLSCAAAGSIFGTNAMGWYRQAPGKEREFVATISSRTGSTYYADSVKGRFTISRDNAKNRVYLQMNSLKPEDPAVYYCAAVRWYGKYDDWGQGTQVTVSS”, with “low polyreactivity”.
Then “QDQLGESGGGLVQAGGSLRLSCAASGSTFRYYAMGWYRQAPGKERELLAAITSSGGSTYYADSVKGRFTISRDNAMNTVYLQMNSLNPEDTAVYYCAVAVKNWVKLNYWGQGTQVTVSS”, with “high polyreactivity”.
To “QDQLLESGGGLGQAGGSLRLSCAASGITFGRYAMGWYRQAPGKERELVAAITWGGGSTYYADSVKGRFTISRDNAKNTVYLQMNSLKPEDTAVYYCAARSYGRWFGGYDSWGQGTQVTVSS” belongs “high polyreactivity”; to “QDQLLESGGGLVQAGGSLRLSCAASGRTFRYYTMGWYRQAPGKEREFVAAISSTGGTYYADSVKGRFTISRDNAKNTVYLQMNSLKPEDTAVYYCAATFIQFVVNVELYDYDYWGQGTQVTVSS”, “low polyreactivity”.
For “QDQLVDSGGCLVQAGGSLSLSCAASGNTFNIYAMGWYRQAPGKEREFVAAITVSDTSTYYADSVKGRFTISRDNAKNTVYLKMHSLKPEDTSVYYCNADWWCTYDYYYWGQGTQGTVSS”, the “polyreactivity (PSR sort gate)” value is reported as “low polyreactivity”.
Take “QDQLVDSGGGLDQAGGSLRLSCAATGRTIGINAMGWYRQAPGKERELVAVISFGDGGTYSADSVKGRFTISRDNAKNTVYLQMNSLKPEDTAVYYCATDYQSTSVWGGHFVINPFDYWGQGTQVTVSS”: the “polyreactivity (PSR sort gate)” value was “low polyreactivity”.
On to “QDQLVDSGGGLVQAGGSLRFSCAASGFIFRFNAMGWYRQAPGKERELVADIRWSSGSTYYADSVKGRYTISRDNAKNTVYLEMNSLKPEDTAVFYCAVTYLRVHYKFTPFDYWGQGTQVTVSS”, for which the “polyreactivity (PSR sort gate)” value is “low polyreactivity”.
“QDQLVDSGGGLVQAGGSLRLSCAASGRISGYYAMGWYRQAPGKERELVASITYRGGSTYYADSVKGRFTISRDNAKNTVYLQINSLKPEDTAVYSCNFRYRPNRGSIGQPNSGKNWYDYWGLGTQVTVSS”: the “polyreactivity (PSR sort gate)” value is on record as “high polyreactivity”.
In the case of “QDQLVDSGGGLVQAGGSLRLSCAASGRTFYTYAMGWYRQAPGKEREFVARISKRGGGTYYADSVKGRFTISRENAKNTVDLQMNSLIPEDTAVYYCNAGVPSAMDYWGQGTQLTVSS”, the “polyreactivity (PSR sort gate)” value is on record as “high polyreactivity”.
In the case of “QDQLVDSGGGLVQAGGSLRLSCAASGSIFYLYAMGWYRQAPGKEREFVAAITWRGGSTYYADSVKGRFTISRDNAKNTVYLQLNSLKPEDTAVYYCGAKLPRVYGYGFEYWGQGTQVTVSS”, the “polyreactivity (PSR sort gate)” value is given as “low polyreactivity”.
Then “QDQLVDSGGGLVQAGGSLRLSCAASGSIYDPYAMGWYRQAPGKERELVATIDWDDASTYYADSVKGRFTISRDNAKNTVYLQMNSLKPEDTAVYYCATRDRAGYYYWGQGTQVTVSS”, with “high polyreactivity”.
To “QDQLVDSGGGLVQAGGSLRLSCASSGGTFSYYTMGWYRQAPGKERELVARISKNGGRTYYADSVKGRFTISRDNAKNTVYLQLNSLKPEDTAVYYCNAAGRTYDFSGGRTMEYWGQGTQVTVSS” belongs “high polyreactivity”.
Then “QDQLVDSRGGLVKAGGSLRLSCSASGRTFYYYAMGWSRQAPGQERELVADINTRVTSTYYADSVKGRFTISRDNAKNTVYLQMNSLKPEDTGVYYCAVDPYGDSWEDWLRNYYYGYDYWGQGTQVTVSS”, with “low polyreactivity”.
Turning to “QDQLVDSRGGLVQAGGSLRLSCAASGLIFRSYAMGWSRQAPGKERELVAAITDLFWSTYYADSVKGRFTISRDYAKNTVYLQMNSLKPEDNAVFYCARDDWVYTNVEMDYWGQGTQVTVSS”, the “polyreactivity (PSR sort gate)” value is “high polyreactivity”.
In the case of “QDQLVESAGGLVQAGGSLRLSCAASGRTFRAYAMGWYRQAPGKAMELVAAISRNGGTTYYADSVKGRFTMSRDNAKNTVYLQMNSLKPEDTAVSYCNARAGTKTGLKSDYWGQGTQVTVSS”, the “polyreactivity (PSR sort gate)” value was “high polyreactivity”.
To “QDQLVESCGCLVQAGGSLRLSCASSGSTFGTYAMGWYRQAPGKERELVAAISSGDSTTYADSVKGRFTISRDNAKNTVYFQRNSLKQVDTAVYYCAARTFLMRNGGYNYWGEGTQVTVSS” belongs “low polyreactivity”; to “QDQLVESCGGLVQAGGSLRLICAASGITFRYNAMGWYRQAPGKERELVAAITFSGGSTYYADSVKGRFTISRDNAKNTVYLQMISLKPEDTAVYYCAARKARPPFPHPFDYYWGQGTQVTVSS”, “low polyreactivity”; to “QDQLVESGAGLVQAGGSLRLSCAASGRIFTPYAMGGYRHAPRKERELVAVIRDGSTYFADSVKGRFTISRDNAKNTVYFQMKSLKPEETAGYYCRYDIWVWWSGAYDYWGQGTQVTVSS”, “low polyreactivity”.
For “QDQLVESGGALVQAGGSLLLSCAASGITFGDHAMGWYRQAPGKEWELFAAISWSGDRTFYADSVTGRFTISRDNAKNTVSLQMNSLNPADTAVYYCNAEIGWHNEGRLSTYDYWGQGTQVTVSS”, the “polyreactivity (PSR sort gate)” value is “low polyreactivity”.
To “QDQLVESGGCLVQAGGSLRLSCAASGSIFKRNAMGWYRQAPGKERELVASISWSGTRTYYADSVKGRFTISRDNAKNTVYLQMNSLKPEDTAVYYCARRIYGGHPSQSTQGDFYYWGHGTQVTVSS” belongs “high polyreactivity”.
To “QDQLVESGGGIVQAGGSLRLSCAASGRIFYGYAMGWYRQAPGKERELVAAITSRGTSTYYADSVKGRFTISRDNAKNTVYLQMNSLKPEDTAVFYCNAAYGRSFYSKVFSYNYWGQGTQVTVSS” belongs “high polyreactivity”; to “QDQLVESGGGIVQAGVSLRLSCAANGIIFDYYAMGWYRQAPGKERELVAAINRNGGTTYYADSVKGRFTISRDNAKNTVYLQMICLKPEDTAVYYCAAVDFGWSTYYYWGQGTQVTVAS”, “high polyreactivity”; to “QDQLVESGGGLDQARGSLRLICAASGSTFKYYAMPSYRQAPGKERELVAAISWSGGNTYYADSVKGRFTISRENAKNTDYLQMNCLKPEDTAVYYCAADTKVGNGIKFDYWGQGTHVTVSS”, “high polyreactivity”.
Then “QDQLVESGGGLLQAGGSLRLSCAASGRTFRYYAMGWYRQAPGKERELVAAISWSGSSTYYADSVKGRFTISRDNAKNTVYLQMNSLKAEDTAVYDCNAKGVRGKYFDYSRVSAYDYWGQGTQVTVSS”, with “low polyreactivity”.
On to “QDQLVESGGGLLQAGGSLSLSCAASGFTIYGYAMVWYRQAPGKERELVAAITNSGGRTYYADSVKGRFTISRDNAKNSVYLQMKSLKPEFTAVYFCAVDDLRGYDYWGQGTQVTVSS”, for which the “polyreactivity (PSR sort gate)” value is on record as “low polyreactivity”.
For “QDQLVESGGGLVEAGGSLRLSCAASGITFSWYAMVWKRQAPGKEREFVAAISPGGTSTYYADSVKGRFTISRDNAKKTVYLQMNSLKPEDTAFYYCAVQWLYPYDYWGHGTQVTVSS”, the “polyreactivity (PSR sort gate)” value is on record as “high polyreactivity”.
In the case of “QDQLVESGGGLVHAGGSLRLSCAASGLTFGRNAMGWYRQAPGKERELVAAISRSGGRTSYADSVKGRFTISRDNAKYTVYLQMHSLKPEDTAVYYCAARSDVFTHDYWGQGTQVTVSS”, the “polyreactivity (PSR sort gate)” value is listed as “high polyreactivity”.
